Measured values as given in US20160159872A1.

Columns and labels:
6xHis-CtBP [1] = target: 6xHis-CtBP (UniProt Q13363); assay: competition assay of the CtBP-E1A interaction (AlphaScreen or fluorescence polarization; not said which)
6xHis-CtBP [2] = target: 6xHis-CtBP (UniProt Q13363); assay: competition assay of the CtBP/E1A interaction, FIG. 3
6xHis-CtBP [3] = target: 6xHis-CtBP (UniProt Q13363); assay: competition assay of the CtBP/E1A protein interaction (format not said)
6xHis-CtBP [4] = target: 6xHis-CtBP (UniProt Q13363); assay: fluorescence polarization; unlabeled peptide competes with the FITC-labeled 14mer peptide for CtBP

| Substance | IC50 (6xHis-CtBP [1]) | IC50 (6xHis-CtBP [2]) | IC50 (6xHis-CtBP [3]) | IC50 (6xHis-CtBP [4]) |
| --- | --- | --- | --- | --- |
| Tat-E1A-flag (peptide) | 1.7 µM | 7.7 µM | 1.7 µM | – |
| Wild-type 14mer E1A peptide … | 7.26 µM | – | 7.26 µM | 6 µM |
